# Columns and labels:
# Experiment in all cases: pull-down
# His-G5(1–739) Y15A = His-G5(1–739) Y15A (UniProt Q8TEQ6)
# His-G5(1–739) W14A = His-G5(1–739) W14A (UniProt Q8TEQ6)
# His-G5(1–739) Y474A = His-G5(1–739) Y474A (UniProt Q8TEQ6)
# His-G5(1–739) wild type = His-G5(1–739) wild type (UniProt Q8TEQ6)
# Sequence of His-G5(1–739) wild type (Q8TEQ6 1-739): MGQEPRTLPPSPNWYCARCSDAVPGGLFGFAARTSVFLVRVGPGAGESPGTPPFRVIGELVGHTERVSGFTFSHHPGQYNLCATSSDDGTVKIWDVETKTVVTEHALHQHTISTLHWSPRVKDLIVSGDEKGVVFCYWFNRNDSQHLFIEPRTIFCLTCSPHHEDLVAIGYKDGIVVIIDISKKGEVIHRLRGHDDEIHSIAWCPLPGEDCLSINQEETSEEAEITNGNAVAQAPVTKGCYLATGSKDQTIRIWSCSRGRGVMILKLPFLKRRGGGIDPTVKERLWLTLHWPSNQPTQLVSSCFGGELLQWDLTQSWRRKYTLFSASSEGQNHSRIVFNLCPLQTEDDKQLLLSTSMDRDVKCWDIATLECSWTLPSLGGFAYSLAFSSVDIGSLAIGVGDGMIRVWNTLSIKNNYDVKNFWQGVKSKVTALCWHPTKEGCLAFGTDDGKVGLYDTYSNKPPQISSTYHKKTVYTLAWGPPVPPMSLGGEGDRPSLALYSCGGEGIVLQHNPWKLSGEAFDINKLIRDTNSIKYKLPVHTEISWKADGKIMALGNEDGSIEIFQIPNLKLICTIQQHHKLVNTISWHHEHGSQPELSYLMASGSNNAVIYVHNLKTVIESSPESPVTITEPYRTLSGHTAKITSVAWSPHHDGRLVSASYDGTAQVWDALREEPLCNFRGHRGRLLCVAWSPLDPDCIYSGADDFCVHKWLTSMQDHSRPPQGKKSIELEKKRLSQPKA
# Sequence of His-G5(1–739) Y474A (Q8TEQ6 1-739 Y474A): as the sequence (Q8TEQ6 1-739) above, with Y474A counted along it
# Sequence of His-G5(1–739) Y15A (Q8TEQ6 1-739 Y15A): as the sequence (Q8TEQ6 1-739) above, with Y15A counted along it
# Sequence of His-G5(1–739) W14A (Q8TEQ6 1-739 W14A): as the sequence (Q8TEQ6 1-739) above, with W14A counted along it
substance,measurement,setting,value
80S ribosomes (from UniProt P05388 1-317) (complex),fold P0 signal over the beads-ribosome background,His-G5(1–739) Y15A,14.4 fold
same,fold P0 signal over the beads-ribosome background,His-G5(1–739) W14A,13.8 fold
same,fold P0 signal over the beads-ribosome background,His-G5(1–739) Y474A,3 fold
same,"fold P0 signal over the control (beads with 80S, no His protein)",His-G5(1–739) wild type,38.8 fold

# Reference: publication PMC5041490
